Test results as given in the supplement of paper PMC11865577.

Tests used:
Assay in all cases: pull-down binding Z-score (relative to library population); higher = stronger binding
Settings in all cases: RNA library: Library-2
TO-N3 (biotin conjugate) = tested on: TO-N3 (biotin conjugate)
Procedure, shortened: (§1)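 Heat-folded RNA library (1 μg, Cy5 or Cy3 end label, phosphate/NaCl/KCl buffer) was captured for 60 min at 25 °C on streptavidin beads displaying 100 pmol of biotin-conjugated small molecule, then washed three times. The bound fraction, eluted in hot SDS, was hybridised to a DNA barcode microarray at 55.5 °C for 20 h. Z-scores for binding were taken against the library mean and standard deviation after beads-only subtraction and trimmed averaging of replicate barcoded probes.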

[1] = tested on: TO-3-N3 (biotin conjugate)
Procedure, shortened: as §1

[2] = tested on: TO-3-N3-2 (biotin conjugate)
Procedure, shortened: as §1

[3] = tested on: TO-N3-2 (biotin conjugate)
Procedure, shortened: as §1

GUUAAAAUAUGAC [SHAPE_invivo_SARS-CoV-2_Motif_271]
pull-down binding Z-score (TO-N3 (biotin conjugate)): -0.93
pull-down binding Z-score [1]: -0.672
pull-down binding Z-score [2]: -0.534
pull-down binding Z-score [3]: -0.892

UAACACCAGGAACAAAUACUUCUAACCAGGUUGCUGUUCUUUAUCAGGGUGUUA [SHAPE_invivo_SARS-CoV-2_Motif_440]
pull-down binding Z-score (TO-N3 (biotin conjugate)): -0.633
pull-down binding Z-score [1]: -0.383
pull-down binding Z-score [2]: -0.22
pull-down binding Z-score [3]: -1.19

UGAUAGUCAACAAACUGUUGGUCAACAAGACGGCAGUGAGGACAAUCA
pull-down binding Z-score (TO-N3 (biotin conjugate)): 0.595
pull-down binding Z-score [1]: 0.68
pull-down binding Z-score [2]: 0.241
pull-down binding Z-score [3]: -0.167

CUGUGGGUUUUACACUUAAAAACACAG [DMSMaPseq_invitro_SARS-CoV-2_Motif_239]
pull-down binding Z-score (TO-N3 (biotin conjugate)): -0.32
pull-down binding Z-score [1]: -0.233
pull-down binding Z-score [2]: -0.131
pull-down binding Z-score [3]: -0.754

UGCGAGAAAUGCUUGCA [SHAPE_invitro_SARS-CoV-2_Motif_85]
pull-down binding Z-score (TO-N3 (biotin conjugate)): 0.918
pull-down binding Z-score [1]: 1.12
pull-down binding Z-score [2]: -0.0133
pull-down binding Z-score [3]: -0.155

UGAUUUUUGUGGAAAGGGCUAUCAUCUUAUGUCCUUCCCUCAGUCA [SHAPE_invivo_SARS-CoV-2_Motif_462]
pull-down binding Z-score (TO-N3 (biotin conjugate)): -0.702
pull-down binding Z-score [1]: -0.662
pull-down binding Z-score [2]: -0.0472
pull-down binding Z-score [3]: -0.49

CUAGGUUUUUCUAUGUACUUGG
pull-down binding Z-score (TO-N3 (biotin conjugate)): 0.825
pull-down binding Z-score [1]: 1.15
pull-down binding Z-score [2]: 0.313
pull-down binding Z-score [3]: -0.376

ACAACAACCAUAAAACCAGUUACUUAUAAAUUGGAUGGUGUUGU
pull-down binding Z-score (TO-N3 (biotin conjugate)): -1.03
pull-down binding Z-score [1]: -0.686
pull-down binding Z-score [2]: -0.38
pull-down binding Z-score [3]: -1.37

UGAUGUUUGUCA
pull-down binding Z-score (TO-N3 (biotin conjugate)): -0.762
pull-down binding Z-score [1]: -0.46
pull-down binding Z-score [2]: -0.778
pull-down binding Z-score [3]: -1.2

GGAAUUGCAAUGUCGAUAGAUAUCCUGCUAAUUCC [DMSMaPseq_invitro_SARS-CoV-2_Motif_342]
pull-down binding Z-score (TO-N3 (biotin conjugate)): -0.229
pull-down binding Z-score [1]: -0.203
pull-down binding Z-score [2]: -0.418
pull-down binding Z-score [3]: -0.212

ACGUGGCUUUGGAGACUCCGUGGAGGAGGUCUUAUCAGAGGCACGU
pull-down binding Z-score (TO-N3 (biotin conjugate)): 0.0366
pull-down binding Z-score [1]: -0.105
pull-down binding Z-score [2]: 0.0243
pull-down binding Z-score [3]: 0.34

UAAUGGUUUAACUUCUAUUA [DMSMaPseq_invitro_SARS-CoV-2_Motif_100]
pull-down binding Z-score (TO-N3 (biotin conjugate)): -1.33
pull-down binding Z-score [1]: -0.945
pull-down binding Z-score [2]: -0.395
pull-down binding Z-score [3]: -1.37

CUGGACUCUAAAUAGAAACCAACCUGCUGCAACAGCAUUGGCCAACACAAUAGAAGUGUUCAGAUCAAAUGGCCUCACGGCCAAUGAGUCUGG
pull-down binding Z-score (TO-N3 (biotin conjugate)): -0.231
pull-down binding Z-score [1]: -0.791
pull-down binding Z-score [2]: -0.486
pull-down binding Z-score [3]: 0.269

CCAGUAUCUGAAUUACUUACACCACUGGGCAUUGAUUUAGAUGAGUGGAGUAUGGCUACAUACUACUUAUUUGAUGAGUCUGGUGAGUUUAAAUUGG
pull-down binding Z-score (TO-N3 (biotin conjugate)): -0.752
pull-down binding Z-score [1]: -0.742
pull-down binding Z-score [2]: -0.468
pull-down binding Z-score [3]: -0.946

AUGGUGCUAACAAAGACGGCAUCAU [SHAPE_invivo_SARS-CoV-2_Motif_545]
pull-down binding Z-score (TO-N3 (biotin conjugate)): -0.143
pull-down binding Z-score [1]: 0.0674
pull-down binding Z-score [2]: -0.105
pull-down binding Z-score [3]: -0.639

GAUGCUGUUGUGUGUUUCAAUAGCACUUAUGCAUC
pull-down binding Z-score (TO-N3 (biotin conjugate)): -0.937
pull-down binding Z-score [1]: -0.907
pull-down binding Z-score [2]: -0.542
pull-down binding Z-score [3]: -0.931

UAAAGCCACGUAUAAACCAAAUACCUGGUGUAUACGUUGUCUUUG
pull-down binding Z-score (TO-N3 (biotin conjugate)): -0.75
pull-down binding Z-score [1]: -0.523
pull-down binding Z-score [2]: -0.279
pull-down binding Z-score [3]: -0.691

UGUACUUGGAUUGGCUGCAAUCAUGCAAUUGUUUUUCAGCUAUUUUGCAGUACA [SHAPE_invivo_SARS-CoV-2_Motif_149]
pull-down binding Z-score (TO-N3 (biotin conjugate)): -0.78
pull-down binding Z-score [1]: -0.482
pull-down binding Z-score [2]: -0.559
pull-down binding Z-score [3]: -0.907

AGUCCCUGUUGCUAUUCAUGCAGAUCAACUUACUCCUACUUGGCGUGUUUAUUCUACAGGUUCUAAUGUUUUUCAAACACGUGCAGGCUGUUUAAUAGGGGCU
pull-down binding Z-score (TO-N3 (biotin conjugate)): -1.03
pull-down binding Z-score [1]: -0.948
pull-down binding Z-score [2]: -0.638
pull-down binding Z-score [3]: -0.608

GGUUUGUUACAGACACACC [SHAPE_invivo_SARS-CoV-2_Motif_243]
pull-down binding Z-score (TO-N3 (biotin conjugate)): -0.748
pull-down binding Z-score [1]: -0.427
pull-down binding Z-score [2]: -0.488
pull-down binding Z-score [3]: -0.785

GCGCUGCCAGAAACUGGCUUAAGCGC [bulge-UUA]
pull-down binding Z-score (TO-N3 (biotin conjugate)): -0.128
pull-down binding Z-score [1]: 0.176
pull-down binding Z-score [2]: -0.252
pull-down binding Z-score [3]: -0.601

UAGAAUAGACGGUGACAUGGUACCACAUAUAUCACGUCAACGUCUUACUA [SHAPE_invivo_SARS-CoV-2_Motif_261]
pull-down binding Z-score (TO-N3 (biotin conjugate)): -0.562
pull-down binding Z-score [1]: -0.605
pull-down binding Z-score [2]: -0.164
pull-down binding Z-score [3]: -0.953

CAUUUGUAGUUUCAACUGGAUACCACUUCAGAGAGCUAGGUGUUGUACAUAAUCAGGAUGUAAACUUACAUAGCUCUAGACUUAGUUUUAAGGAAUUACUUGUG
pull-down binding Z-score (TO-N3 (biotin conjugate)): -0.109
pull-down binding Z-score [1]: -0.927
pull-down binding Z-score [2]: -0.292
pull-down binding Z-score [3]: 0.127

CCCAAUCAUGAAGGG [IAV_invivo_PB1_2_Motif_24+IAV_invivo_PB1_2_Motif_24]
pull-down binding Z-score (TO-N3 (biotin conjugate)): -0.488
pull-down binding Z-score [1]: -0.131
pull-down binding Z-score [2]: -0.407
pull-down binding Z-score [3]: -0.373

GCAAGCUUCGAUAAUUUUAAGUUUGU [SHAPE_invitro_SARS-CoV-2_Motif_120]
pull-down binding Z-score (TO-N3 (biotin conjugate)): 0.816
pull-down binding Z-score [1]: 1.04
pull-down binding Z-score [2]: 0.402
pull-down binding Z-score [3]: -0.0709

GGCUGGAUCGAGUGAGCAAGCAGCAGAGGCC [IAV_invivo_M1_M2_7_Motif_14+IAV_invivo_M1_M2_7_Motif_14]
pull-down binding Z-score (TO-N3 (biotin conjugate)): 1.37
pull-down binding Z-score [1]: 0.316
pull-down binding Z-score [2]: 0.757
pull-down binding Z-score [3]: 2.47

GGGUAGUGGUGAGCAUUGACC [IAV_invivo_PB2_1_Motif_22+IAV_invivo_PB2_1_Motif_22]
pull-down binding Z-score (TO-N3 (biotin conjugate)): 1.28
pull-down binding Z-score [1]: 1.17
pull-down binding Z-score [2]: 0.601
pull-down binding Z-score [3]: 0.804

GCGCUGCCAGAAACUGGCGGGAGCGC [bulge-GGG]
pull-down binding Z-score (TO-N3 (biotin conjugate)): 0.688
pull-down binding Z-score [1]: 0.781
pull-down binding Z-score [2]: 0.00655
pull-down binding Z-score [3]: 0.604

GGCAUCUGCGGGCC [IAV_invivo_NP_5_Motif_21+IAV_invivo_NP_5_Motif_21]
pull-down binding Z-score (TO-N3 (biotin conjugate)): -0.759
pull-down binding Z-score [1]: -0.637
pull-down binding Z-score [2]: -0.641
pull-down binding Z-score [3]: -0.239

AGGUCCAGACAUGUUCCUCGGAACUUGUCGGCGUUGUCCU
pull-down binding Z-score (TO-N3 (biotin conjugate)): -0.838
pull-down binding Z-score [1]: -0.757
pull-down binding Z-score [2]: -0.441
pull-down binding Z-score [3]: 0.332

GCGCUGCCAGAAACUGGCAAGCGC [bulge-A]
pull-down binding Z-score (TO-N3 (biotin conjugate)): -0.493
pull-down binding Z-score [1]: -0.289
pull-down binding Z-score [2]: -0.541
pull-down binding Z-score [3]: -1.12

CCCCGGCCCCGGCCCCGGCCCCGG [r(CCCCGG)4]
pull-down binding Z-score (TO-N3 (biotin conjugate)): 0.747
pull-down binding Z-score [1]: 0.661
pull-down binding Z-score [2]: 0.272
pull-down binding Z-score [3]: 1.48

CAACUCUCAUGAAGUGUGAUCAUUGUGGUGAAACUUCAUGGCAGACGGGCGAUUUUGUUAAAGCCACUUGCGAAUUUUG
pull-down binding Z-score (TO-N3 (biotin conjugate)): -0.161
pull-down binding Z-score [1]: -0.573
pull-down binding Z-score [2]: -0.197
pull-down binding Z-score [3]: 0.0444

UGCAGCAGAAACGCUCA [SHAPE_invitro_SARS-CoV-2_Motif_303]
pull-down binding Z-score (TO-N3 (biotin conjugate)): 0.371
pull-down binding Z-score [1]: 0.273
pull-down binding Z-score [2]: 0.0228
pull-down binding Z-score [3]: 0.533
